Results taken from the supplement of paper PMC12042874.
± gives the uncertainty stated by the source.

Assay: amyloid nucleation score (Sup35N fusion, yeast selection) (log enrichment); library NNK2; higher = more nucleation; inactive = no reads after selection
Method in brief: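 Plasmid inserts were Illumina-sequenced at input and output from psi-negative yeast expressing Sup35N fused to peptides of 20 random codons. The yeast were induced with 100 μM copper sulfate for 24 hours and grown 7 days at 30°C on medium lacking adenine and uracil, and sequences with under 100 input reads were excluded. Nucleation score is the DiMSum log enrichment of output over input reads, centred on the mode score of non-aggregating sequences.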

Row | Substance | amyloid nucleation score
1 | HVTRQLCPLMSFILGR | 0.565 ± 0.49
2 | STELFLS | -0.251 ± 0.28
3 | GSYSNAIFIHKLKNKHCFQS | inactive
4 | LRRVFQISERRNKLWLYEEC | 0.6 ± 0.74
5 | RVSQDSVAGRRSLFMKFVGG | 6.022 ± 0.042
6 | ITLFDHRSSKTTLKDFAENT | -0.137 ± 1.1
7 | AVLCWLCLLGGLNINFEECG | 4.11 ± 0.045
8 | CNSHM | 2.9 ± 0.072
9 | SMHEISVLLVDPVTLQYLG | 0.114 ± 0.63
10 | TYNKYK | -1.08 ± 0.78
11 | MHCSESSYYFAILRARHVLL | 1.43 ± 0.12
12 | HSCSYRLLSMYTRLRTLVSG | -0.828 ± 0.64
13 | NVVTG | -0.11 ± 0.42
14 | NYIRYLRVYYIVGDELRPGN | 8.026 ± 0.048
15 | NQTNSGQRVY | -0.208 ± 1.1
16 | IVNLPSYYRASRQEDVVKGR | 0.75 ± 0.36
17 | HSGCCRYLLNNWLYSYMQFY | 4.08 ± 0.05
18 | VGLGVRVEVLTMSFTILQSV | 3.36 ± 0.078
19 | NDGVWKLFPLYLTPRSTFLL | 0.895 ± 0.81
20 | VNLFVLDSRTNGVCFWELMT | -0.452 ± 0.55
21 | SGGSDMQHS | 1.61 ± 0.3
22 | AARFELYSNWS | 2.05 ± 0.21

Row | Substance | amyloid nucleation score
23 | QAFVNFNIIYDV | 5.959 ± 0.053
24 | LTMCICWLTQCMT | 6.283 ± 0.056
25 | LYQRNRLWGRKAWNTLWFSL | -0.506 ± 0.42
26 | SPKMF | -0.564 ± 0.46
27 | NMCVK | inactive
28 | LVHPALVVWKQYWVVRLRDV | 6.43 ± 0.044
29 | GGGYLCRVDYGSIDLTWLKS | -0.559 ± 0.76
30 | HIKLYSDYTCKLMPSLTWQR | 4.8 ± 0.08
31 | GNCLEYIVRNTIANKRSRML | -0.114 ± 1
32 | RCMLKSIRLLSSVGRLHYRW | 0.742 ± 0.48
33 | ACLLIFLSTA | 2.31 ± 0.078
34 | IFSIKPIYLDLNQRVNSIAE | inactive
35 | VRWIKVFHFP | -0.784 ± 0.76
36 | ARRIVMWVYECGTYCWRRTT | 0.216 ± 0.43
37 | MKPSGFRGILGTELRMKGWT | 0.74 ± 0.57
38 | TYLFYWSLGQRCMIF | inactive
39 | NPDLNKT | 1.36 ± 0.39
40 | KEGFPMIIDYEIGFTDLSGG | -1.43 ± 0.75
41 | IGGGTLYWGVDWVMY | 2.96 ± 0.12
42 | CEIHYIIRQRSPVLSNRVQR | inactive
43 | RSYSGVFT | -0.926 ± 0.48
44 | PVFAFQYLSLCKWDLF | -0.976 ± 1

Row | Substance | amyloid nucleation score
45 | SYYQCCSG | 3.15 ± 0.14
46 | YFRHVVAGHLRCCLLVSARD | 2.7 ± 0.13
47 | NVRFY | inactive
48 | RFICYSHTFTGSMLSISIR | 8.061 ± 0.077
49 | QLVLQVNRYVYRIMSTLTLS | 0.848 ± 0.52
50 | QCTHPGLVVIYRSLAKDYLS | -0.285 ± 0.48
51 | YNWGNASSSGVKPEPGGQPT | 0.696 ± 0.27
52 | IVDLNLGSEESLFSYLGMSV | -2.45 ± 0.54
53 | GFFLSNFSVFYKCIRSVVDT | -1.81 ± 0.62
54 | WSDGLSPVKLVRLS | 3.91 ± 0.094
55 | STFDPCLRHPLIMCFYSVCA | 0.014 ± 0.46
56 | SYTNLGPAGCVALSKYSVIR | -1.18 ± 1.1
57 | IRPSWLKENLRMVYWYKDYP | 2.53 ± 0.077
58 | SVLNGAAGMYWCW | 0.107 ± 0.46
59 | TQRHATENLKFTTWAYKSRE | 0.994 ± 0.16
60 | IVCPKSGNAVVYGLMTMNNK | 0.329 ± 0.62
61 | CAVRWVGVS | 1.12 ± 0.23
62 | TSNSII | -0.876 ± 0.49
63 | ASVLWHFLPSGGARFVCSER | 0.538 ± 0.5
64 | KLSSRYIYLYSRYEPSS | inactive
65 | SSFIQGCQDSDTNFGGTSSC | inactive
66 | NMYFCLFFRIVLLLGNDKIA | -1.06 ± 0.6

Row | Substance | amyloid nucleation score
67 | ESSIRHRGMERRCRLHKRH | 0.546 ± 0.39
68 | VYLKIAGTVIDRFTAHVLLM | -1.43 ± 0.75
69 | MVGNSNAPARVLCTVSKFGV | 0.587 ± 0.33
70 | KCWYRH | 1.39 ± 0.1
71 | GNRIPVTRGLVKDRSKLVGV | 0.007 ± 1.1
72 | AFTWLY | 0.942 ± 0.26
73 | YVLSCDPLVRYQGLEDRQQS | 0.31 ± 0.62
74 | FNTSTAFESTDVKSKVM | -1.22 ± 1.1
75 | YKKGGLFDC | -1.38 ± 0.39
76 | VGPVMINSSSVTQCTGWNRT | 3.8 ± 0.091
77 | TLTLSTIHWNLY | 6.13 ± 0.066
78 | DGYIELS | 0.302 ± 0.41
79 | PKKSVGKLNIILEVLPSTAV | -0.666 ± 0.53
80 | RHMWDHFCCFF | 5.28 ± 0.094
81 | QGDWVEGV | 0.144 ± 0.79
82 | NFIRDSMVTCRYEKDLGA | 0.713 ± 0.8
83 | VFLYNIGFK | 0.691 ± 0.38
84 | CGSSMEYVGPLVYSAGAAEV | -0.097 ± 1.1
85 | IIRITESASRCNTDQLFLLW | inactive
86 | LQRYRFSNACI | inactive
87 | GFSPSMECHVMEAHLDMRVR | 0.227 ± 0.21
